Test results as given in the supplement of paper PMC10126150.
± gives the standard deviation of the averaged measurements.

System: ATP
Test: switch fluorescence ratio, 500 uM ATP over buffer (Cy3 cluster intensity, sum of 5 cycles each) (fold (ratio)); higher = stronger signal-on switching upon ATP binding; sequences stand for … in TCGTCGGCAGCGTCAGATGTGTATAAGAGACAGTTTTTTTTTTTTTTTTTTTTTTTTT…TC
Conditions: aptamer strand: ATP DNA aptamer (quencher-CACCTGGGGGAGTATTGCGGAGGAAGG + anchor), 100 nM annealed; ATP concentration: 500 uM
Outline: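 Cy3-labelled switching-strand clusters on a modified Illumina MiSeq flow-cell were annealed to 100 nM quencher-labelled ATP aptamer, imaged in selection buffer, then imaged after 15 min with 500 uM ATP at 22 °C. Five buffer/ATP cycles ran, with NaOH stripping and re-annealing between them. The fluorescence ratio is summed target-cycle over summed buffer-cycle Cy3 intensity per cluster, averaged per switch-domain sequence. Clusters outside 100-1000 RFU were excluded.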
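Further: ATP exposure 15 min at 22 °C before imaging.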

GGTATGGAGC
switch fluorescence ratio: 0.971 ± 0.039

GGTATGGCGC
switch fluorescence ratio: 0.986 ± 0.058

GGTATGGGAG
switch fluorescence ratio: 0.9913 ± 0.001

GGTATGGGGA
switch fluorescence ratio: 1 ± 0.022

GGTATTAAGT
switch fluorescence ratio: 1 ± 0.011

GGTATTATCG
switch fluorescence ratio: 0.969 ± 0.017

GGTATTGCTT
switch fluorescence ratio: 0.995 ± 0.0021

GGTATTGGCA
switch fluorescence ratio: 0.996 ± 0.022

GGTATTGGCC
switch fluorescence ratio: 0.987 ± 0.013

GGTATTTATC
switch fluorescence ratio: 0.986 ± 0.038

GGTATTTTTA
switch fluorescence ratio: 0.9758 ± 0.0046

GGTCAAACCA
switch fluorescence ratio: 1.03 ± 0.0097

GGTCAATCTA
switch fluorescence ratio: 0.946 ± 0.045

GGTCACGGCA
switch fluorescence ratio: 1 ± 0.013

GGTCAGGGTT
switch fluorescence ratio: 0.954 ± 0.035

GGTCAGTGAT
switch fluorescence ratio: 1.01 ± 0.06

GGTCATAGTG
switch fluorescence ratio: 1.01 ± 0.018

GGTCATTTAG
switch fluorescence ratio: 0.994 ± 0.031

GGTCCAAAAT
switch fluorescence ratio: 0.9848 ± 0.0089

GGTCCAATTA
switch fluorescence ratio: 0.977 ± 0.015

GGTCCACCGT
switch fluorescence ratio: 0.989 ± 0.014

GGTCCAGGTC
switch fluorescence ratio: 1.12 ± 0.057

GGTCCAGGTT
switch fluorescence ratio: 1.09 ± 0.068

GGTCCATGCT
switch fluorescence ratio: 0.961 ± 0.032

GGTCCGTAGG
switch fluorescence ratio: 1.01 ± 0.033

GGTCCTACTG
switch fluorescence ratio: 1.01 ± 0.017

GGTCCTGTTG
switch fluorescence ratio: 1.01 ± 0.035

GGTCGCGGAT
switch fluorescence ratio: 1.01 ± 0.019

GGTCGCGTAG
switch fluorescence ratio: 1.01 ± 0.03

GGTCGCTTTT
switch fluorescence ratio: 0.9949 ± 0.0043

GGTCGGACGT
switch fluorescence ratio: 0.992 ± 0.086

GGTCGGGACC
switch fluorescence ratio: 0.998 ± 0.033

GGTCGGGGGT
switch fluorescence ratio: 1.03 ± 0.039

GGTCGGGTTT
switch fluorescence ratio: 1.01 ± 0.014

GGTCGTAGCC
switch fluorescence ratio: 0.9719 ± 0.0084

GGTCGTCTGC
switch fluorescence ratio: 0.984 ± 0.018

GGTCTACCGG
switch fluorescence ratio: 1.01 ± 0.017

GGTCTAGAAA
switch fluorescence ratio: 1.21 ± 0.3

GGTCTCTGGG
switch fluorescence ratio: 1 ± 0.016

GGTCTGCGCG
switch fluorescence ratio: 1.02 ± 0.037

GGTCTGTATT
switch fluorescence ratio: 0.972 ± 0.012

GGTCTGTGTG
switch fluorescence ratio: 0.984 ± 0.028

GGTCTGTTTC
switch fluorescence ratio: 1.01 ± 0.015

GGTCTTGAGG
switch fluorescence ratio: 1.01 ± 0.028

GGTCTTGTTG
switch fluorescence ratio: 1.02 ± 0.036

GGTGAAAGCC
switch fluorescence ratio: 0.98 ± 0.049

GGTGAAAGGA
switch fluorescence ratio: 0.979 ± 0.058

GGTGAACAGT
switch fluorescence ratio: 0.97143 ± 0.00048

GGTGAACCGT
switch fluorescence ratio: 1.001 ± 0.0046

GGTGAAGGAT
switch fluorescence ratio: 0.982 ± 0.026

GGTGAAGGTA
switch fluorescence ratio: 0.929 ± 0.045

GGTGAATAAT
switch fluorescence ratio: 0.9969 ± 0.0065

GGTGAGAAGT
switch fluorescence ratio: 1.01 ± 0.013

GGTGAGAGGT
switch fluorescence ratio: 0.9696 ± 0.0055

GGTGAGGCAA
switch fluorescence ratio: 1.19 ± 0.12

GGTGATGATC
switch fluorescence ratio: 1.038 ± 0.0044

GGTGATGGGT
switch fluorescence ratio: 0.971 ± 0.04

GGTGCAACAT
switch fluorescence ratio: 1.03 ± 0.051

GGTGCGATGC
switch fluorescence ratio: 1.7 ± 0.081

GGTGCGGTCG
switch fluorescence ratio: 0.9824 ± 0.0053

GGTGCGTACG
switch fluorescence ratio: 1.01 ± 0.058

GGTGCTACAC
switch fluorescence ratio: 1.04 ± 0.025

GGTGCTATCT
switch fluorescence ratio: 0.992 ± 0.015

GGTGCTGGTG
switch fluorescence ratio: 1.05 ± 0.025

GGTGGAACAG
switch fluorescence ratio: 1.02 ± 0.028

GGTGGAAGAT
switch fluorescence ratio: 1 ± 0.045

GGTGGAAGTA
switch fluorescence ratio: 0.998 ± 0.064

GGTGGAATCT
switch fluorescence ratio: 1.02 ± 0.052

GGTGGACACT
switch fluorescence ratio: 1.03 ± 0.024

GGTGGACTTA
switch fluorescence ratio: 1.01 ± 0.03

GGTGGAGTCG
switch fluorescence ratio: 1.009 ± 0.0085

GGTGGATTTG
switch fluorescence ratio: 0.981 ± 0.062

GGTGGCAAGG
switch fluorescence ratio: 0.9912 ± 0.0094

GGTGGCCCAA
switch fluorescence ratio: 1.001 ± 0.0059

GGTGGGAACA
switch fluorescence ratio: 0.992 ± 0.03

GGTGGGAGCT
switch fluorescence ratio: 1.01 ± 0.075

GGTGGGATCA
switch fluorescence ratio: 1.09 ± 0.18
